Measured values from US20110300157A1 (DYAX, published 2011).

How the values were obtained:
[1] = target: Mouse MMP-9 (R&D, 909-MM), APMA-activated (mouse, UniProt P41245 108-730, limits assumed); experiment: enzyme inhibition with fluorogenic peptide substrate Mca-KPLGL-Dap(Dnp)-AR-NH2; Ki from IC50 vs substrate concentration, 30 C
Experimental: (§1) Materials: [0424] Substrate: Mca-KPLGL-Dap(Dnp)-AR-NH₂ (M-2350) from BACHEM (521575). A 10 mM stock solution was prepared in DMSO. [0425] Enzymes: [0426] Human MMP-9 catalytic domain (BIOMOL, SE-244). Enzyme concentration was measured by titration with TIMP-1 (2522-104) [0427] Mouse MMP-9 (R&D, 909-MM), APMA-activated. [0428] M0237-D02 hIgG1: 2517-014. Dialysed against TCN. [0429] TCNB: 50 mM Tris/HCl, 10 mM CaCl₂, 150 mM NaC, […] Brij 35, pH 7.5. [0430] 96-well black plates from Perkin Elmer (6005270) [0431] Spectramax M2e to measure fluorescence emission of the substrate upon hydrolysis (temperature control set at 30° C.; λexc=328 nm and λₑₘ=393 nm)
(§2) The enzyme (final concentration=0.23 and 0.17 nM for the human and mouse MMP-9, respectively) was preincubated with various concentrations (0-50 nM) of M0237-D02 for 1 h at 30° C. The substrate was then added to a final concentration ranging from 5 to 40 μM and initial rates were recorded.

[2] = target: T1, active human MMP-9 catalytic domain (BIOMOL, SE-244) (human, UniProt P14780 107-444, limits assumed); experiment: as above
T1 construct: domain: catalytic domain; also called Cat-huMMP-9; cat-huMMP-9
Experimental: as §1, §2

[3] = target: T1, active human MMP-9 catalytic domain …; experiment: plot of kobs vs antibody concentration from inhibition progress curves, 25 C
Experimental: Materials: [0447] Substrate: Mca-KPLGL-Dap(Dnp)-AR-NH₂ (M-2350) from BACHEM (521575). A 10 mM stock solution was prepared in DMSO. [0448] Human MMP-9 catalytic domain (BIOMOL, SE-244). [0449] M0237-D02 hIgG1: 2517-068. [0450] All measurements were performed at 25° C. in TCNB: 50 mM Tris/HCl, 10 mM CaCl₂, 150 mM NaCl 0.05% Brij 35, pH 7.5. [0451] 96-well black plates from Perkin Elmer (6005270) [0452] Spectramax M2e to measure fluorescence emission of the substrate upon hydrolysis (λexc=328 nm and λₑₘ=393 nm)
The enzyme (at a final concentration ranging from 1.5 to 12.3 nM), the substrate (9 μM final) and the M0237-D02 antibody were mixed, and the fluorescence was immediately recorded in order to follow the hydrolysis of the substrate. The observed inhibition rate (kobs) was obtained by analyzing the progress curves with a single exponential. The value for kₒₙ and koff were calculated from the plot of the kobs vs. the antibody concentration using the following equation: […]

h-MMP-9/h-TIMP-1 complex = target: T2, h-MMP-9/h-TIMP-1 complex (human, UniProt P14780 107-444; P01033 24-207, limits assumed); experiment: SPR Biacore 3000, antibody amine-coupled to CM5 chip (direct capture)
T2 construct: also called huTIMP-1/cat-huMMP-9; MMP-9/TIMP-1 complex
Experimental: (§3) Experiments were performed at 25° C. with the help of a Biacore 3000 instrument. The MMP-9 binding protein (M0166F10) and the M0237-D02 antibody were coated to a CM5 chip either via standard amine coupling or using an anti-Fc antibody surface. Then either the active, human MMP-9 catalytic domain (BIOMOL, SE-244), the human pro-MMP-9 (R&D, 911-MP), the human TIMP-1 (R&D, 970-TM) or a h-MMP-9/h-TIMP-1 complex were flowed over the antibody surfaces, and binding was recorded.
(§4) It was shown that the human MMP-9 catalytic domain binds to M0166-F10, whether this antibody is directly captured via amine coupling or captured with an anti-Fc antibody surface.

[4] = target: T3, human TIMP-1 (R&D, 970-TM) (human, UniProt P01033 24-207); experiment: as above
T3 construct: also called huTIMP-1; h-TIMP-1
Experimental: as §3, §4

[5] = target: T4, human pro-MMP-9 (R&D, 911-MP) (human, UniProt P14780 20-707); experiment: as above
T4 construct: Zymogen form; also called Pro-huMMP-9
Experimental: as §3, §4

T1 sequence (P14780 107-444 limits assumed): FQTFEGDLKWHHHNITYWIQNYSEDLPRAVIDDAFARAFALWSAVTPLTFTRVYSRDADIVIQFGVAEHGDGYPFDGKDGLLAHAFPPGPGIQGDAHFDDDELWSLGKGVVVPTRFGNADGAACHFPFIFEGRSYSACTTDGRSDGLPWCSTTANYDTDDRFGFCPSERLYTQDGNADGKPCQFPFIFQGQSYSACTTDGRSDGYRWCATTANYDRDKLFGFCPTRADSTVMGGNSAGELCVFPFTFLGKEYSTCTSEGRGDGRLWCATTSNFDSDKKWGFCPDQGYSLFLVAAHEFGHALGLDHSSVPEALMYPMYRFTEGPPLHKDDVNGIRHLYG
T2 sequence (P14780 107-444 limits assumed, chain 1 of 2): as the sequence (P14780 107-444 limits assumed) above
T2 sequence (P01033 24-207 limits assumed, chain 2 of 2): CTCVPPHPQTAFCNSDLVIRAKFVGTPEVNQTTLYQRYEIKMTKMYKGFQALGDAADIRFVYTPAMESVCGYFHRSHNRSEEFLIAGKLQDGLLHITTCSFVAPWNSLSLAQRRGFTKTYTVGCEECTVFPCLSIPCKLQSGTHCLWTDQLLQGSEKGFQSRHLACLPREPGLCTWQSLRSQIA
T3 sequence (P01033 24-207 limits assumed): as the sequence (P01033 24-207 limits assumed, chain 2 of 2) above
T4 sequence (P14780 20-707): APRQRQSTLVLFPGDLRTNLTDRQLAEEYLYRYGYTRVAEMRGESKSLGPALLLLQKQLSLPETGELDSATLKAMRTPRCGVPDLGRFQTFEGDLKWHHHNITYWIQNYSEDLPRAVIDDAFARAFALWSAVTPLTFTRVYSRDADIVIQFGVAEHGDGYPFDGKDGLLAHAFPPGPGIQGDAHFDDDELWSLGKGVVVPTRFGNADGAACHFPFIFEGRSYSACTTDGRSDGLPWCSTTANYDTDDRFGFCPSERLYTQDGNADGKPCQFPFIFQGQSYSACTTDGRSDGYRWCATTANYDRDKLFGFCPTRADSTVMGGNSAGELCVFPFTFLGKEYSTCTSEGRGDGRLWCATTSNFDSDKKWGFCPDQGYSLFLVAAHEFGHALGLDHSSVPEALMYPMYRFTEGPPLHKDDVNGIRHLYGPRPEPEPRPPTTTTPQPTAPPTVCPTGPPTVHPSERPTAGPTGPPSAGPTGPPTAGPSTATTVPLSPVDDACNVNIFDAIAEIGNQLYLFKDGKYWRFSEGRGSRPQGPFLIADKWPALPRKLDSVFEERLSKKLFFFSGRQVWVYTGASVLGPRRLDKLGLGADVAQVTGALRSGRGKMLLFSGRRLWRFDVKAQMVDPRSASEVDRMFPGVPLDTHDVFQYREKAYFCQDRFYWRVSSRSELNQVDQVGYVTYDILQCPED
Sequence of Mouse MMP-9 (R&D, 909-MM), APMA-activated (P41245 108-730 limits assumed): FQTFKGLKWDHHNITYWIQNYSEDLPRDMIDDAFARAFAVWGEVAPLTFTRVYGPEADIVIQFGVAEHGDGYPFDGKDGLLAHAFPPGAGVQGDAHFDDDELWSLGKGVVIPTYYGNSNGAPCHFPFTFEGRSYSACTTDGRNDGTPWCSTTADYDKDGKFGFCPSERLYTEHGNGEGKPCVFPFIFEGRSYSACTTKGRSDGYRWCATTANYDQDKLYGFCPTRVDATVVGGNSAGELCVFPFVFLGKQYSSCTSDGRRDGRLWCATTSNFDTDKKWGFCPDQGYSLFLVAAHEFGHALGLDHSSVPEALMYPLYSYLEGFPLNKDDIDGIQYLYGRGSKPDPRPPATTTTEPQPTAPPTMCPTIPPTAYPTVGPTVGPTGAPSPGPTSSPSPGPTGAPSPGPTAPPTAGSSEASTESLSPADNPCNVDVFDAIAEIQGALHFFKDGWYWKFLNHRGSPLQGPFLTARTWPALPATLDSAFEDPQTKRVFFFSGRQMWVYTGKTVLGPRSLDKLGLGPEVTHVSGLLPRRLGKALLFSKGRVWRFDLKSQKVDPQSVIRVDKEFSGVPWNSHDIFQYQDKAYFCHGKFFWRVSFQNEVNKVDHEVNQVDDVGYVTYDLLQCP

B1: 539A-M0237-D02 hIgG1 (antibody, V domains shown)
VH: EVQLLESGGGLVQPGGSLRLSCAASGFTFSQYPMWWVRQAPGKGLEWVSYIVPSGGRTYYADSVKGRFTISRDNSKNTLYLQMNSLRAEDTAVYYCAKDRAYGDYVGWNGFDYWGQGTLVTVSS
VL: DIQMTQSPATLSLSPGERATLSCRASQSISSFLAWYQQKPGQAPRLLIYDASYRATGIPARFSGSGSGTDFTLTISSLEPEDYAVYYCQQRGNWPITFGQGTRLEIKR
notes: Tested as hIgG1; also called M237-D02; DL8
[1]
  Ki: 1.3 nM
[2]
  Ki: 0.92 nM
[3]
  koff: ~0.0004 s⁻¹
  kon: ~70000 M⁻¹ s⁻¹
h-MMP-9/h-TIMP-1 complex
  binding result: no binding

B2: 539A-M0166-F10 (antibody, V domains shown)
VH: EVQLLESGGGLVQPGGSLRLSCAASGFTFSPYLMNWVRQAPGKGLEWVSSIYSSGGGTGYADSVKGRFTISRDNSKNTLYLQMNSLRAEDTAVYYCARIYHSSSGPFYGMDVWGQGTTVTVSS
VL: QSELTQPPSASAAPGQRVTISCSGSSSNIGSNTVTWYQKLPGTAPKLLIYNNYERPSGVPARFSGSKSGTSASLAISGLQSEDEADYYCATWDDSLIANYVFGSGTKVTVLG
notes: also called DL15
h-MMP-9/h-TIMP-1 complex
  binding result: no binding
[4]
  binding result: no binding
[5]
  binding result: no binding
